Reference: patent publication US20240026037A1

Columns and labels:
[1] = target: Human GPA33 on GPA33+ colorectal cancer cell lines (Colo 205, LS 174T, SW 1222) (human) (UniProt Q99795); experiment: cell binding to SW1222 Luc cells; IgG format
[2] = target: Human GPA33 on GPA33+ colorectal cancer cell lines (Colo 205, LS 174T, SW 1222) (human) (UniProt Q99795); experiment: cell binding to LS174T Luc cells; IgG format
[3] = target: Human GPA33 (recombinant protein, Novoprotein) (human) (UniProt Q99795); experiment: SPR (Biacore), binding to GPA33 protein; IgG format
Human GPA33 (recombinant protein, Novoprotein) (human), sequence (Q99795 22-235 limits assumed): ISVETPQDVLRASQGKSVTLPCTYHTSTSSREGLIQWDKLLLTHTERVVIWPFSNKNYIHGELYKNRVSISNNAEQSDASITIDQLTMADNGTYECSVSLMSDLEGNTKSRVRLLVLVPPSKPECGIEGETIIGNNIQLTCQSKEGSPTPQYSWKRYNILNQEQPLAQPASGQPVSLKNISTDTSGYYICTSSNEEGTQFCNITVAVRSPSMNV

Human GPA33 on GPA33+ colorectal cancer cell lines (Colo 205, LS 174T, SW 1222) (human), sequence (Q99795 22-319 limits assumed): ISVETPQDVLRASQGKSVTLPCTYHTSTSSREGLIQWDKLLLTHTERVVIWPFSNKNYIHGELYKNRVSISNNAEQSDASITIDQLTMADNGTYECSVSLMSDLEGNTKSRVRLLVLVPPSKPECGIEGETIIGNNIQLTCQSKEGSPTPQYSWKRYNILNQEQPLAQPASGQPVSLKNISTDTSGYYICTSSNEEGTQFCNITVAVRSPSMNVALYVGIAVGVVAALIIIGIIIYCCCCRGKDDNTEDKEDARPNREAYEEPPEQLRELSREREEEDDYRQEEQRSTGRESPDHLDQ

Binder | EC50 [1] | EC50 [2] | Kd [3]
G3A_VK1+VH2 (antibody, IgG1, V domains shown, part only, IgG1 constant regions) VH: EVQLVESGGGLVKPGGSLRLSCAASGFAFSTYDMSWVRQAPGKGLEWVATISSGGSYTYYLDSVKGRFTISRDSAKNSLYLQMNSLRAEDTAVYYCAPTTVVPFAYWGQGTLVTVSA VL: DIQMTQSPSSLSASVGDRVTITCKASQNVRTVVAWYQQKPGKAPKRLIYLASNRHTGVPSRFSGSGSGTEFTLTISNLQPEDFATYYCLQHWSYPLTFGSGTKLEVK | 0.991 µg/mL | 0.654 µg/mL | 1.73 nM
G3A_VK2+VH1 (antibody, IgG1, V domains shown, part only, IgG1 constant regions not given) VH: EVQLVESGGGLVKPGGSLRLSCAASGFAFSTYDMSWVRQAPGKGLEWVSTISSGGSYTYYADSVKGRFTISRDNAKNSLYLQMNSLRAEDTAVYYCAPTTVVPFAYWGQGTLVTVSA VL: DIQMTQSPSSLSTSVGDRVTITCKASQNVRTVVAWYQQKPGKAPKTLIYLASSLQSGVPSRFSGSGSGTEFTLTISNVQPEDFADYFCLQHWSYPLTFGSGTKLEVK |  | 1.2 µg/mL | 5.8 nM
G3A_VK2+VH2 (antibody, IgG1, V domains shown, part only, IgG1 constant regions) VH: EVQLVESGGGLVKPGGSLRLSCAASGFAFSTYDMSWVRQAPGKGLEWVATISSGGSYTYYLDSVKGRFTISRDSAKNSLYLQMNSLRAEDTAVYYCAPTTVVPFAYWGQGTLVTVSA VL: DIQMTQSPSSLSTSVGDRVTITCKASQNVRTVVAWYQQKPGKAPKTLIYLASSLQSGVPSRFSGSGSGTEFTLTISNVQPEDFADYFCLQHWSYPLTFGSGTKLEVK |  |  | 9.54 nM
G3A_VK2+VH3 (antibody, IgG1, V domains shown, part only, IgG1 constant regions not given) VH: EVQLVESGGGLVKPGGSLRLSCAASGFAFSTYDMSWVRQAPGKGLEWVATISSGGSYTYYADSVKGRFTISRDSAKNSLYLQMNSLRAEDTAVYYCAPTTVVPFAYWGQGTLVTVSA VL: DIQMTQSPSSLSTSVGDRVTITCKASQNVRTVVAWYQQKPGKAPKTLIYLASSLQSGVPSRFSGSGSGTEFTLTISNVQPEDFADYFCLQHWSYPLTFGSGTKLEVK | 1.89 µg/mL |  | 8.39 nM

Now those with a lower Kd [3], led by results:

EC50 [1] | EC50 [2] | Kd [3] | Binder
1.32 µg/mL | 1.78 µg/mL | 1.49 nM | G3A_VK1+VH3 (antibody, IgG1, V domains shown, part only, IgG1 constant regions) VH: EVQLVESGGGLVKPGGSLRLSCAASGFAFSTYDMSWVRQAPGKGLEWVATISSGGSYTYYADSVKGRFTISRDSAKNSLYLQMNSLRAEDTAVYYCAPTTVVPFAYWGQGTLVTVSA VL: DIQMTQSPSSLSASVGDRVTITCKASQNVRTVVAWYQQKPGKAPKRLIYLASNRHTGVPSRFSGSGSGTEFTLTISNLQPEDFATYYCLQHWSYPLTFGSGTKLEVK
1.51 µg/mL | 1.12 µg/mL | 0.87 nM | G3A_VK1+VH1 (antibody, IgG1, V domains shown, part only, IgG1 constant regions not given) VH: EVQLVESGGGLVKPGGSLRLSCAASGFAFSTYDMSWVRQAPGKGLEWVSTISSGGSYTYYADSVKGRFTISRDNAKNSLYLQMNSLRAEDTAVYYCAPTTVVPFAYWGQGTLVTVSA VL: DIQMTQSPSSLSASVGDRVTITCKASQNVRTVVAWYQQKPGKAPKRLIYLASNRHTGVPSRFSGSGSGTEFTLTISNLQPEDFATYYCLQHWSYPLTFGSGTKLEVK
0.383 µg/mL | 0.381 µg/mL | 0.241 nM | G3A_VK3+VH2 (antibody, IgG1, V domains shown, part only, IgG1 constant regions not given) VH: EVQLVESGGGLVKPGGSLRLSCAASGFAFSTYDMSWVRQAPGKGLEWVATISSGGSYTYYLDSVKGRFTISRDSAKNSLYLQMNSLRAEDTAVYYCAPTTVVPFAYWGQGTLVTVSA VL: DIQMTQSPSSLSTSVGDRVTITCKASQNVRTVVAWYQQKPGKAPKTLIYLASNRHSGVPSRFSGSGSGTEFTLTISNLQPEDFATYYCLQHWSYPLTFGSGTKLEVK
0.314 µg/mL | 0.364 µg/mL | 0.229 nM | G3A_VK4+VH2 (antibody, IgG1, V domains shown, part only, IgG1 constant regions not given) VH: EVQLVESGGGLVKPGGSLRLSCAASGFAFSTYDMSWVRQAPGKGLEWVATISSGGSYTYYLDSVKGRFTISRDSAKNSLYLQMNSLRAEDTAVYYCAPTTVVPFAYWGQGTLVTVSA VL: DIQMTQSPSSLSASVGDRVTITCKASQNVRTVVAWYQQKPGKAPKTLIYLASNRHTGVPSRFSGSGSGTEFTLTISNLQPEDFATYYCLQHWSYPLTFGSGTKLEVK
